Experimental data published in the nanobody polyreactivity screen of Harvey et al. (2022).

Experiment: yeast display, Sf9 membrane polyspecificity reagent, FACS + sequencing; frameworks hold sequencing errors
How it was run: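 Sorting gates, low and high (top ~1%), were placed on anti-HA fluorescence to track expression and on streptavidin fluorescence to track reagent binding. A clone's polyreactivity label is taken from the gate it came out of. The reagent was 10% biotinylated, detergent-solubilized Sf9 membrane, applied for 1 hour at 4 °C to galactose-induced yeast display cells.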

Row | Sequence | polyreactivity (PSR sort gate)
1 | QVQLVESGGGLVQAGGSLRLSCAASGSIFYTYAMGWYRQAPGKERELVARIDYSTGNTYYADSVKGRFTISRDNAKNTVYLQMNSLKPEDTAVYYCAARDWSSFTGAYDYWGQGTQVTVSS | high polyreactivity
2 | QVQLVESGGGLVQAGGSLRLSCAASGSIFYTYAMGWYRQAPGKERELVAVISYGGGRTYYADSVKGRFTISRDNAKNTVYLQMNSLKPEDTAVYYCAASYSFYAFSVPYYYWGQGSQVTVSS | high polyreactivity
3 | QVQLVESGGGLVQAGGSLRLSCAASGSIFYTYVMGWYRPAPGKERELVAAISASGVRTYYADSVKGRFTISRDNAKYTFYLQMNSLKPEYTAVYFCAADRQRADYYWGQGTQVTVSS | high polyreactivity
4 | QVQLVESGGGLVQAGGSLRLSCAASGSIFYTYVMGWYRPAPGKERELVAVISWSSTSTYYADSVKGRFTISRDNAKKTVYLQMNSLKPEDTAVYYCAAGVHRYRPGHGYDDGGYYWGQGTQVTVSS | low polyreactivity
5 | QVQLVESGGGLVQAGGSLRLSCAASGSIFYTYVMGWYRQAPGKERELVAAITWSGGSTYYADSVKGRFTISRDNAKNTVYLQMNSLKPEDTAVYYCAAVRGYRSSKYDYWGQGTQVTVSS | high polyreactivity
6 | QVQLVESGGGLVQAGGSLRLSCAASGSIFYVNAMGWSRQAPGKERELVAAITSGVSTNYADSVKGSFTISRDNAKNTVYLQMNSLKREDTAVYYSAADYTYKQLHWVIEDYWGQGTQVTVSS | low polyreactivity
7 | QVQLVESGGGLVQAGGSLRLSCAASGSIFYVNAMGWYRQAPGKERELVASITASGGTTYYADSVKGRFTISRDNAKNTVYLQMNSLKPEDTAVYYCAATFIQVVVNVQLYDYDYWGQGTQVTVSS | low polyreactivity
8 | QVQLVESGGGLVQAGGSLRLSCAASGSIFYVYAMGWYRQAPGKEREFVASIRTSGSSTYADSVKGRFTISRDNAKNTVYLQMNSLKPEDTAVYYCAAGSITVFWKRTGYRWRGYDYWGQGTQVTVSS | low polyreactivity
9 | QVQLVESGGGLVQAGGSLRLSCAASGSIFYVYAMGWYRQAPGKERELVAAITSSGTTNYADSVKGRFTISRDNAKNTVYLQMNSLKPEDTAVYYCAADPDSGQVPFDYWGQGTQVTVSS | low polyreactivity
10 | QVQLVESGGGLVQAGGSLRLSCAASGSIFYVYAMGWYRQAPGKERELVATISSSAGSTYYADSVKGRFTISRDNAKNTVYLQMNSLKPEDTAVYYCAAKVRYSLRKYYYWGQGTQVTVSS | high polyreactivity
11 | QVQLVESGGGLVQAGGSLRLSCAASGSIFYWNAMGWYRQAPGKERELVAAISSSGSSTYYADSVKGRFTISRDNAKNTVYLQMNSLKPEDTAVYYCAADNYNSGGTRHMYYWGQGTQVTVSS | high polyreactivity
12 | QVQLVESGGGLVQAGGSLRLSCAASGSIFYWNAMGWYRQAPGKERELVATITITTSTNYADSVKGRFTISRDNAKNTVYLQMNSLKPEDTAVYYCNAGAPYRYLDEYNYWGQGTQVTVSS | low polyreactivity
13 | QVQLVESGGGLVQAGGSLRLSCAASGSIFYWNTMGWYRQAPGKERELVAAIRRGGNTYYADSVKGRFTISRDNAKNTVYLQMNCLKPEDTAVYYCNRDGTYVYHGGEYWGQGTQVTVSS | low polyreactivity
14 | QVQLVESGGGLVQAGGSLRLSCAASGSIFYWYAMGWYRQAPGKEREFIADIDWSGGSTYYADSVKGRFTISRDNAKNTVYLQMNSLKPEDTAVYYCAAEARIDIGLYYLDSYYWGQGTQVTVSS | high polyreactivity
15 | QVQLVESGGGLVQAGGSLRLSCAASGSIFYWYAMGWYRQAPGKERELVAAISSGGSTNYADSVKGRFTISRDNAKNTVYLQMNSLKPEDTAVYYCNADVPVRYGPIYFRRLDYWGQGTQVTVSS | low polyreactivity
16 | QVQLVESGGGLVQAGGSLRLSCAASGSIFYWYAMGWYRQAPGKERELVAAITSSSGRTRYADSVKGRFTISRDNAKNTVYLQMNSLKPEDTAVYYCAAGRWGSYYTPRPYGYWGQGTQVTVSS | high polyreactivity
17 | QVQLVESGGGLVQAGGSLRLSCAASGSIFYWYAMGWYRQEPGKERELVAAIDISDDTYYADSVKGRYTISRDNAKNTVYLLMNRLKPEDTAVYYCATDEWYLFEYPFYYWGQGSQVTVSS | high polyreactivity
18 | QVQLVESGGGLVQAGGSLRLSCAASGSIFYWYTMGWYRQAPGKERELVAAISSIDGNTYYADSVKGRFTISRDNAKNTVYLQMNSLKPEDTAVYYCAAAYYNTDYYYWGQGTQVTVSS | low polyreactivity
19 | QVQLVESGGGLVQAGGSLRLSCAASGSIFYYAMGWYRQAPGKERELVADISTGGSTHYADSVKGRFTISRDNAKNTVYLQMYSLKPEDTAVYYCAKEAWRYRLNFRYNYWVQGTQVTVSS | low polyreactivity
20 | QVQLVESGGGLVQAGGSLRLSCAASGSIFYYNALGWYRHAPGKERELVASISNGGSTDYADSVKGRFTISRDNAKNTVYLQMNSVKPEDTAVYYCNAKQSYRSDYDYWGQGTQVTVSS | low polyreactivity
21 | QVQLVESGGGLVQAGGSLRLSCAASGSIFYYNAMGWYIQAPGKERELVAAIRSTGSTNYADSVKGRFTISRDNAKNTVYLQMNSLKPEDTAVYYCNADYIFWLTLFDYWGQGTQVTVSS | low polyreactivity

Row | Sequence | polyreactivity (PSR sort gate)
22 | QVQLVESGGGLVQAGGSLRLSCAASGSIFYYNAMGWYRQAPGKEREFVAAIRTRGDSTYYADSVKGRFTISRDNAKNTVYLQMNSLKPEDTAVYYCAARHYGGDGNKYYYWGHGTQVTVSS | high polyreactivity
23 | QVQLVESGGGLVQAGGSLRLSCAASGSIFYYNAMGWYRQAPGKEREFVAAITISGGDTYYADSVKGRFTISRDNAKNTVYLQMNSLKPEDTAVYYCAAESYRGYDYWGQGTQVTVSS | high polyreactivity
24 | QVQLVESGGGLVQAGGSLRLSCAASGSIFYYNAMGWYRQAPGKERELVAAINSNGGSTYYADSVKGRFTISRDNAKNSVYFQMNSLKPEDTAVYYCNARYPGRTQGRYYYWGHGTQVTVSS | low polyreactivity
25 | QVQLVESGGGLVQAGGSLRLSCAASGSIFYYNAMGWYRQAPGKERELVAAISSSGGSTYYADSVKGRFTISRDNAKNTVYLQMNSLKPEDTAVYYCAAKLRHWAHHTKYDYWGQGTQVTVSS | low polyreactivity
26 | QVQLVESGGGLVQAGGSLRLSCAASGSIFYYNAMGWYRQAPGKERELVAAISWGDGITYYADSVKGRFTISRDNAKNTVYLQMNSLKPEDTAVYYCAVDYYYLPYEYWGQGTQVTVSS | high polyreactivity
27 | QVQLVESGGGLVQAGGSLRLSCAASGSIFYYNAMGWYRQAPGKERELVAGISYTGGSTYYADSVKGRFTISRDNAKNTVYLQMNSLKPEDTAVYYCAAVRQYYFRYKINTSGYQYYYWGQGTQVTVSS | high polyreactivity
28 | QVQLVESGGGLVQAGGSLRLSCAASGSIFYYNPMGWYRQAPWKERELVAAITGSGGSTYYADSVKGRFTISRDNAKNTVYLQMNSLKPEDTAVYYCAADYSLYGWWFRNDYWGQGTQVTVSS | low polyreactivity
29 | QVQLVESGGGLVQAGGSLRLSCAASGSIFYYNTMGWYRQAPGKEREFVATITFSGSSTYYADSVKGRFTFSRDNAKNTVYLQMNSLKPEDTAVYYCAVTLEDYTYGYWGQGTQVTVSS | low polyreactivity
30 | QVQLVESGGGLVQAGGSLRLSCAASGSIFYYNTMGWYRQAPGKERELVAAITSTGRTNYADSVKGRFTISRDNAKNTVYLQINSLKPVDTAVYYCAKRRFGDGDYWGQGTQVTVSS | low polyreactivity
31 | QVQLVESGGGLVQAGGSLRLSCAASGSIFYYNVMGWYRQAPGKERELVAAISQSGVRTYYADSVKGRFTISRDNAKNTVYLQMNSLKPEDTAVYYCAAKARRLYASSYDYWGQGTQVTVSS | high polyreactivity
32 | QVQLVESGGGLVQAGGSLRLSCAASGSIFYYNYMGWYRQAPGKERELVATITNGGGTNYADSVKGRFTISRDNAKNTVYLQMNSLKPEDTAVYYCARDVWSPDYLYDYWGQGTQVTVSS | low polyreactivity
33 | QVQLVESGGGLVQAGGSLRLSCAASGSIFYYYAMGWYRQAPGKERELVAAIDSGGSTYYADSVKGRFTISRDNAKNTVYLQMNSLKPEDTAVYYCAADTYWFVYYGYDYWGLGTQVTVSS | low polyreactivity
34 | QVQLVESGGGLVQAGGSLRLSCAASGSIFYYYAMGWYRQAPGKERELVAAISTGGGSTYYADSVKGRFTISRDNAKNTVYLQINSLKPEDTAVYYCAAPWGYYSSFTDDYWGHGTQVTVSS | low polyreactivity
35 | QVQLVESGGGLVQAGGSLRLSCAASGSIFYYYAMGWYRQAPGKERELVAAITSGGRTKYADSVKGRFTISRDNAKNTVYLQMNSLKPEDTAVYYCATRAIWAYSTGYDYWGQGTQVTVSS | high polyreactivity
36 | QVQLVESGGGLVQAGGSLRLSCAASGSIFYYYAMGWYRQAPGKERELVAAITSGGSTYYADSVKGRFTISRDNAKNTVYLQMNSLKPEDTAVYYCAAVFYAAYLRYVWYSYDYWGQGTQVTVSS | low polyreactivity
37 | QVQLVESGGGLVQAGGSLRLSCAASGSIFYYYAMGWYRQAPGKERELVAAITSRAGDTYYADSVKGRFTISRDNAKNTVYLQMNSLKPEDTAVYYCAADFPAYYDYYYWGQGTQVTVSS | low polyreactivity
38 | QVQLVESGGGLVQAGGSLRLSCAASGSIFYYYAMGWYRQAPGKERELVASITSGGSTYYADSVKGRFTISRDNAKNTVYLQMNILKPEDTAVYYCAADVYRTWYWWFDYWGQGTQVTVSS | high polyreactivity
39 | QVQLVESGGGLVQAGGSLRLSCAASGSIFYYYSMGWYRQAPGKERELVAAMSTGGGSTYYADSVKGRFTISRDNAKNTVYLQMNSLKPEDTSVYYCAAPWGYYSSFTDDYWGQGTQVTVSS | low polyreactivity
40 | QVQLVESGGGLVQAGGSLRLSCAASGSIHFEYMGWYRQAPGKERELVAAITIRDGGTYYADSVKGRFTISRDNAKNTVYLQMNSLKPEDTAVYYCNADFSGGWRYDYWGQGTQVTVSS | low polyreactivity
41 | QVQLVESGGGLVQAGGSLRLSCAASGSIIAAYAMGWYRQAPGKERELVAAIRWNGGSTYYADSVKGRFTISRDNAKNTVYLQMISLKPEDTAVFYCAADYIYYPVYEFGYWGQGTQVTVSS | low polyreactivity
